Kd, koff and kon data for 5 molecules are collected here from US20260193326A1.

Holding throughout (experiment): SPR, AAV on CM5 chip
Background: Surface plasmon resonance follows binding to a sensor surface in real time, without labels.

The target of experiment [1] is AAV8 (adeno-associated virus serotype 8).
The target of experiment [2] is AAV5 (adeno-associated virus serotype 5).
Experiment [3] deals with AAV9 (adeno-associated virus serotype 9).

B1: A4-D9 (bispecific antibody)
chain: VQLQESGGGLVHSGGSLRLSCAASGSMFSLNTMGWYRQAPGKQRELVATITRGGGTSYADSVKGRFTISRDNAKNTVYLQMNSLRPEDTAVYYCHVDELRQSSWTTSNLWGQGTQVTVSSGGGGSGGGGSGGGGSVQLQESGGGLVQPGGSLRLSCAASGSRFSLNTMGWYRQAPGKQRELVATVTRGGSTNYADFVKGRFTISRDNAKNTVYLQMNSLRPEDTAVYYCHVDELRESGWTTSNLWGQGTQVTVSSGGGGSGGGGSGGGGSVQLQESGGGLVQPGGSLRLSCAASGSRFSLNTMGWYRQAPGKQRELVATVTRGGSTNYADFVKGRFTISRDNAKNTVYLQMNSLRPEDTAVYYCHVDELRESGWTTSNLWGQGTQVTVSSGGGGSGGGGSGGGGSVQLQESGGGLVQTGGSLRLSCAASGRAFSLNTMGWYRQAPGKWRELVATVTRGGSTNYAGSVKGRFTISRDNAKNTVYLQMNNLRPEDTAVYYCHVDEVRESSWTTSNLWGQGTQVTVSS
Broadly, the Kd is a measure of binding affinity in units of concentration. A higher Kd goes with a looser complex. What is called koff is a measure of how fast the partners let go of each other. Read a low koff as a long-lived complex. As usually defined, the kon is the rate constant with which the complex forms. Read a high kon as faster complex formation. For the molecule B1, the Kd in experiment [1] came out at 0.318 nM; in experiment [2], 0.1 nM; in experiment [3], 0.745 nM. Besides, the koff in experiment [1] came to 9.9e-06 s⁻¹; in experiment [2], 2.3e-06 s⁻¹; in experiment [3], 1.94e-05 s⁻¹. In addition, the kon in experiment [1] was found to be 31100 M⁻¹ s⁻¹; in experiment [2] it was 22900 M⁻¹ s⁻¹; in experiment [3], 26000 M⁻¹ s⁻¹.

B2: A4-D10 (protein)
chain: VQLQESGGGLAQAGGSLRLSCAASGRGFSINTMGWYRQAPGKQRELVAAVTRGGTTNYADSVKGRFTISRDNAKNTVYLQMNSLRPEDTAVYYCHVDEVRQSSWTTSNLWGQGTQVTVSSGGGGSGGGGSGGGGSVQLQESGGGLVQPGGSLRLSCAASGRAFSINTMGWYRQAPGKQRELVATVTRDGSTNYAGSVKGRFTISRDNAKNTVYLQMNSLRPEDTAVYYCHVDEVRQSSWTTSNLWGQGTQVTVSSGGGGSGGGGSGGGGSVQLQESGGGLVQPGGSLRLSCAASGSIFIINTMGWYRRAPGKQRELVAAVTRGGSTNYADSVKGRFTISRDNAKNTVYLQMNSLRPEDTAVYYCHVDEVRQSSWTTSNLWGQGTQVTVSSGGGGSGGGGSGGGGSVQLQESGGGLVQPGGSLRLSCAASGSIFSINTMGWYRQAPGKQRELVAAVTRGGSTNYADSVKGRFTISRDNAKNTVYLQMNSLRPEDTAVYYCHVDEVRQSSWTTSNLWGQGTQVTVSS
Consider B2, for which the Kd in experiment [1] turned out to be 0.542 nM; in experiment [2], 0.481 nM; in experiment [3], 0.0611 nM. The koff in experiment [1] stood at 1.66e-05 s⁻¹; in experiment [2], 8.3e-06 s⁻¹; in experiment [3], 1.9e-06 s⁻¹. For the same molecule, the results for the kon in experiment [1], in experiment [2] and in experiment [3] were 30700 M⁻¹ s⁻¹, 17300 M⁻¹ s⁻¹ and 31100 M⁻¹ s⁻¹, respectively.

B3: A4-D11 (protein)
chain: VQLQESGGGLVQPGGSLRLSCAASGRGFSINTMGWYRQAPGKQRELVAAVTRGGTTNYADSVKGRFTISRDNAKNTVYLQMNSLRPEDTAVYYCHVDEVRQSSWTTSNLWGQGTQVTVSSGGGGSGGGGSGGGGSVQLQESGGGLVQPGGSLRLSCAASGSIFSINTMGWYRQAPGKQRELVAAVTRGGSTNYADSVKGRFTISRDNAKNTVYLQMNSLRPEDTAVYYCHVDEVRQSSWTTSNLWGQGTQVTVSSGGGGSGGGGSGGGGSVQLQESGGGLVQPGGSLRLSCAASGSIFIINTMGWYRRAPGKQRELVAAVTRGGSTNYADSVKGRFTISRDNAKNTVYLQMNSLRPEDTAVYYCHVDEVRQSSWTTSNLWGQGTQVTVSSGGGGSGGGGSGGGGSVQLQESGGGLVQPGGSLRLSCAASGSSFVINTMGWYRQAPGKQRELVAAVTRGGSTNYADSVKGRFTISRDNAKNTVYLQMNSLRPEDTAVYYCHVDEVRQSSWTTSNLWGQGTQVTVSS
B3: the Kd is 0.319 nM in experiment [1], 1.15 nM in experiment [2] and 0.181 nM in experiment [3]. The koff in experiment [1] stood at 1.5e-05 s⁻¹; in experiment [2], 1.4e-05 s⁻¹; in experiment [3] it was 4.8e-06 s⁻¹. In addition, the kon in experiment [1] came out at 47000 M⁻¹ s⁻¹; in experiment [2] it was 12200 M⁻¹ s⁻¹; in experiment [3], 26500 M⁻¹ s⁻¹.

B4: A4-D13 (protein)
chain: VQLQESGGGLVQPGGSLRLSCAASGSIFIINTMGWYRRAPGKQRELVAAVTRGGSTNYADSVKGRFTISRDNAKNTVYLQMNSLRPEDTAVYYCHVDEVRQSSWTTSNLWGQGTQVTVSSGGGGSGGGGSGGGGSVQLQESGGGLVQPGGSLRLSCAASGSIFSINTMGWYRQAPGKQRELVAAVTRGGSTNYADSVKGRFTISRDNAKNTVYLQMNSLRPEDTAVYYCHVDEVRQSSWTTSNLWGQGTQVTVSSGGGGSGGGGSGGGGSVQLQESGGGLAQAGGSLRLSCAASGRGFSINTMGWYRQAPGKQRELVAAVTRGGTTNYADSVKGRFTISRDNAKNTVYLQMNSLRPEDTAVYYCHVDEVRQSSWTTSNLWGQGTQVTVSSGGGGSGGGGSGGGGSVQLQESGGGLVQPGGSLRLSCAASGRAFSINTMGWYRQAPGKQRELVATVTRDGSTNYAGSVKGRFTISRDNAKNTVYLQMNSLRPEDTAVYYCHVDEVRQSSWTTSNLWGQGTQVTVSS
In experiment [1], B4 came in with a Kd of 0.355 nM, a koff of 6.9e-06 s⁻¹ and a kon of 19400 M⁻¹ s⁻¹. In experiment [2], this molecule yielded a Kd of 0.701 nM, a koff of 1.31e-05 s⁻¹ and a kon of 18700 M⁻¹ s⁻¹. Besides, in experiment [3], the Kd turned out to be 0.0471 nM, the koff stood at 2.6e-06 s⁻¹ and the on-rate (kon) came to 55200 M⁻¹ s⁻¹.

B5: A4-D12 (protein)
chain: VQLQESGGGLVQPGGSLRLSCAASGSIFSINTMGWYRQAPGKQRELVAAVTRGGSTNYADSVKGRFTISRDNAKNTVYLQMNSLRPEDTAVYYCHVDEVRQSSWTTSNLWGQGTQVTVSSGGGGSGGGGSGGGGSVQLQESGGGLAQAGGSLRLSCAASGRGFSINTMGWYRQAPGKQRELVAAVTRGGTTNYADSVKGRFTISRDNAKNTVYLQMNSLRPEDTAVYYCHVDEVRQSSWTTSNLWGQGTQVTVSSGGGGSGGGGSGGGGSVQLQESGGGLVQPGGSLRLSCAASGRAFSINTMGWYRQAPGKQRELVATVTRDGSTNYAGSVKGRFTISRDNAKNTVYLQMNSLRPEDTAVYYCHVDEVRQSSWTTSNLWGQGTQVTVSSGGGGSGGGGSGGGGSVQLQESGGGLVQPGGSLRLSCAASGSIFIINTMGWYRRAPGKQRELVAAVTRGGSTNYADSVKGRFTISRDNAKNTVYLQMNSLRPEDTAVYYCHVDEVRQSSWTTSNLWGQGTQVTVSS
In experiment [1], B5 had a Kd of 0.262 nM, a koff of 6.5e-06 s⁻¹ and a kon of 24800 M⁻¹ s⁻¹. In addition, in experiment [2], the Kd was 0.44 nM, the koff came to 1.7e-05 s⁻¹ and the kon is 38600 M⁻¹ s⁻¹. Moreover, in experiment [3], the Kd was 0.0555 nM, the koff was 3e-06 s⁻¹ and the kon turned out to be 54000 M⁻¹ s⁻¹.
